Patent publication US20250304677A1 (VIB VZW, published 2025)
Several values for one entry are separate records, joined by “and”; a condition that tells them apart may be missing. Equal values may be shown once.

Key:
[1] = biological target: T1, human folate receptor alpha (hFRα), recombinant protein (human, UniProt P15328 25-233); assay: BLI, Avi-biotinylated FRα
T1 construct: Bought recombinant proteins (His-tagged, or biotinylated via Avi-tag, e.g. AcroBiosystems FO1-H82E2, F01-H52H1); also called hFOLR1; huFOLR1
T1 sequence (P15328 25-233 limits assumed): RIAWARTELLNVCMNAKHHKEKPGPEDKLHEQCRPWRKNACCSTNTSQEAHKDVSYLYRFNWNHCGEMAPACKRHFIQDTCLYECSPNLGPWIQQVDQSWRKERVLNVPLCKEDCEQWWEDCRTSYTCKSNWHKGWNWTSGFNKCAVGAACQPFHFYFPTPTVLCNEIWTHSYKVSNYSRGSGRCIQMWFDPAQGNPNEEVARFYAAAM
Experimental: (§1) Purified VHHs ^{∘}100 nM) were analysed for binding to avi-tagged biotinylated FRα protein captured on streptavidin-biosensors via BLI.
(§2) Off-rates of purified variants were determined to human, mouse, and cynomolgus FRα in BLI. In addition, binding of the affinity optimised variants to cell-expressed human FRα on HeLa cells was determined by flow cytometry ^{∘}FIG. 10 B).

[2] = biological target: T2, mouse folate receptor alpha (mFRα), recombinant protein (mouse, UniProt P35846 25-232); assay: BLI, Avi-biotinylated FRα
T2 construct: Bought recombinant proteins (e.g. biotinylated, Acro Biosystems FO1-M82E9); also called mFOLR1; Ms FOLR1
T2 sequence (P35846 25-232 limits assumed): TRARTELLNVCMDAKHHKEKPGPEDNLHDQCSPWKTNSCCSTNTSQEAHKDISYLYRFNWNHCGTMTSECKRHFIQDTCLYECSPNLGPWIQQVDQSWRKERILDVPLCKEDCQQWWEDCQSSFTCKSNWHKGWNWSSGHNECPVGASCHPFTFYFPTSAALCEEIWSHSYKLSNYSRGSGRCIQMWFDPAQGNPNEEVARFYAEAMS
Experimental: as §1, §2

[3] = biological target: T1, human folate receptor alpha (hFRα), …; assay: BLI, purified VHH
Outline: (§3)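 Off-rates to folate receptor alpha from human, mouse and cynomolgus were measured by biolayer interferometry. The VHH proteins tested were made with a flag3-His6 tag in TG-1 E. coli at 0.5 L scale and isolated from the periplasm on Ni Sepharose FastFlow columns.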

[4] = biological target: T2, mouse folate receptor alpha (mFRα), …; assay: BLI, purified VHH
Outline: as §3

[5] = biological target: T3, cynomolgus folate receptor alpha, recombinant (cynomolgus, UniProt A0A2K5U044 25-233); assay: BLI, purified VHH
T3 construct: also called cyFOLR1; cynomolgus FRα
T3 sequence (A0A2K5U044 entry or part of it): as the sequence (P15328 25-233 limits assumed) above, with I2T, W4R, R37K, A146P, H171Y counted along it
Outline: as §3

[6] = biological target: T4, human folate receptor alpha expressed on cells (transfected HEK293T, HeLa, MCF7, MDA-MB-231) (human, UniProt P15328 25-234); assay: flow cytometry on HeLa cells, anti-Flag detection
T4 construct: HEK293T transiently transfected with human FOLR1; also called native human FRα; cell-expressed human FOLR1
T4 sequence (P15328 25-234 limits assumed): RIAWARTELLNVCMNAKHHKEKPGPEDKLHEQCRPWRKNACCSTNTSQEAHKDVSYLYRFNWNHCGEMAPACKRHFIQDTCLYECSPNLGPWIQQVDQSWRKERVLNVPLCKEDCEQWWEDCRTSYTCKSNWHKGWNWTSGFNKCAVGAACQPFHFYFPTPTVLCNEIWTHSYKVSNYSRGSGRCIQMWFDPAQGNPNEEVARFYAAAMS
Experimental: EC₅₀ values are found in Table 9. Detection of VHH cell binding was done through anti-Flag M2 mIgG1 followed by anti-mFc-PE in flow cytometry. Results are depicted as mean fluorescence intensity ^{∘}MFI).
as §2

[7] = biological target: T2, mouse folate receptor alpha (mFRα), …; assay: BLI
Outline: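 Off-rates were measured by biolayer interferometry on biotinylated human and mouse folate receptor alpha immobilised on streptavidin biosensors. koff was calculated with a 1:1 binding model. Fold change for each variant is relative to its wild-type VHH. It is wild-type koff divided by variant koff when the variant's off-rate is better, and the negative of variant koff divided by wild-type koff when it is worse.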

| Binder | koff [1] | koff [2] | koff [3] [s⁻¹] | koff [4] [s⁻¹] | koff [5] [s⁻¹] | EC50 [6] [nM] | MFI top [6] [MFI] | koff [7] [s⁻¹] | nm (Fold wt) [7] |
| --- | --- | --- | --- | --- | --- | --- | --- | --- | --- |
| P01500019: 2HF09(Q1E, Q5V, A14P, G26E, G28P, I51V, G54H, D72E, N73G, L79Y, K83R, Q108L)-HIS6 (VHH, Entry includes the tag; also called P0150019; P01500001[G26E, G28P, D72E, N73G]) VHH: EVQLVESGGGLVQPGGSLRLSCAASESPFSGMIMGWYRQAPGKQRELVATVTSHGTTNYADSVKGRFTISREGAKNTVYLQMNSLRPEDTAVYYCNAHFPGIYWGKGTLVTVSS | 0.000206 s⁻¹ | 8.33e-05 s⁻¹ |  |  |  |  |  |  |  |
| P01500050: P01500001(G28T, D72P)-FLAG3-HIS6 (VHH, also called P0150050) VHH: EVQLVESGGGLVQPGGSLRLSCAASGSTFSGMIMGWYRQAPGKQRELVATVTSHGTTNYADSVKGRFTISRPNAKNTVYLQMNSLRPEDTAVYYCNAHFPGIYWGKGTLVTVSS | 0.00128 s⁻¹ | 0.000168 s⁻¹ | 0.00105 | 0.000168 | 0.00109 | 3.61 | 62500 |  |  |
| P01500045: P01500001(G26E, I33L)-FLAG3-HIS6 (VHH, also called P0150045) VHH: EVQLVESGGGLVQPGGSLRLSCAASESGFSGMLMGWYRQAPGKQRELVATVTSHGTTNYADSVKGRFTISRDNAKNTVYLQMNSLRPEDTAVYYCNAHFPGIYWGKGTLVTVSS | 0.00187 s⁻¹ | 0.00036 s⁻¹ | 0.00157 | 0.00036 | 0.00036 | 4.71 | 58900 |  |  |
| P01500051: P01500001(D72E, N73G)-FLAG3-HIS6 (VHH, also called P0150051) VHH: EVQLVESGGGLVQPGGSLRLSCAASGSGFSGMIMGWYRQAPGKQRELVATVTSHGTTNYADSVKGRFTISREGAKNTVYLQMNSLRPEDTAVYYCNAHFPGIYWGKGTLVTVSS | 0.000474 s⁻¹ and 0.000555 s⁻¹ | 4.99e-05 s⁻¹ and 8.33e-05 s⁻¹ | 0.000546 | 8.41e-05 | 0.00078 | 3.31 | 61000 |  |  |
| P01500048: P01500001(S30I, D72P)-FLAG3-HIS6 (VHH, also called P0150048) VHH: EVQLVESGGGLVQPGGSLRLSCAASGSGFIGMIMGWYRQAPGKQRELVATVTSHGTTNYADSVKGRFTISRPNAKNTVYLQMNSLRPEDTAVYYCNAHFPGIYWGKGTLVTVSS | 0.00147 s⁻¹ | 0.000142 s⁻¹ | 0.0013 | 0.000142 | 0.00133 | 2.46 | 59800 |  |  |
| P01500047: P01500001(G26E, G28T, S30I, I33L)-FLAG3-HIS6 (VHH, also called P0150047) VHH: EVQLVESGGGLVQPGGSLRLSCAASESTFIGMLMGWYRQAPGKQRELVATVTSHGTTNYADSVKGRFTISRDNAKNTVYLQMNSLRPEDTAVYYCNAHFPGIYWGKGTLVTVSS | 0.00119 s⁻¹ | 0.000219 s⁻¹ | 0.000971 | 0.000219 | 0.000219 | 3.19 | 59100 |  |  |
| P01500049: P01500001(G26E)-FLAG3-HIS6 (VHH, also called P0150049) VHH: EVQLVESGGGLVQPGGSLRLSCAASESGFSGMIMGWYRQAPGKQRELVATVTSHGTTNYADSVKGRFTISRDNAKNTVYLQMNSLRPEDTAVYYCNAHFPGIYWGKGTLVTVSS | 0.00648 s⁻¹ | 0.000826 s⁻¹ | 0.00569 | 0.00105 | 0.000393 | 10.9 | 46600 |  |  |
| P01500041: P01500001(D72P, N73G)-FLAG3-HIS6 (VHH, also called P0150041) VHH: EVQLVESGGGLVQPGGSLRLSCAASGSGFSGMIMGWYRQAPGKQRELVATVTSHGTTNYADSVKGRFTISRPGAKNTVYLQMNSLRPEDTAVYYCNAHFPGIYWGKGTLVTVSS | 0.00113 s⁻¹ | 0.000191 s⁻¹ | 0.00094 | 0.00014 | 0.00014 | 4.2 | 63000 |  |  |
| P01500042: P01500001(G28T, S30I)-FLAG3-HIS6 (VHH, also called P0150042) VHH: EVQLVESGGGLVQPGGSLRLSCAASGSTFIGMIMGWYRQAPGKQRELVATVTSHGTTNYADSVKGRFTISRDNAKNTVYLQMNSLRPEDTAVYYCNAHFPGIYWGKGTLVTVSS | 0.00338 s⁻¹ | 0.00038 s⁻¹ | 0.00274 | 0.00038 | 0.00038 | 5.19 | 54700 |  |  |
| P01500043: P01500001(G28T, I33L, D72E)-FLAG3-HIS6 (VHH, also called P0150043) VHH: EVQLVESGGGLVQPGGSLRLSCAASGSTFSGMLMGWYRQAPGKQRELVATVTSHGTTNYADSVKGRFTISRENAKNTVYLQMNSLRPEDTAVYYCNAHFPGIYWGKGTLVTVSS | 0.000639 s⁻¹ | 0.000114 s⁻¹ | 0.000534 | 0.000114 | 0.000428 | 2.4 | 60200 |  |  |
| P01500044: P01500001(S30I, D72E, N73G)-FLAG3-HIS6 (VHH, also called P0150044) VHH: EVQLVESGGGLVQPGGSLRLSCAASGSGFIGMIMGWYRQAPGKQRELVATVTSHGTTNYADSVKGRFTISREGAKNTVYLQMNSLRPEDTAVYYCNAHFPGIYWGKGTLVTVSS | 0.000555 s⁻¹ | 0.000126 s⁻¹ | 0.000464 | 0.000126 | 0.000737 | 3.29 | 64100 |  |  |
| P01500046: P01500001(N73P)-FLAG3-HIS6 (VHH, also called P0150046) VHH: EVQLVESGGGLVQPGGSLRLSCAASGSGFSGMIMGWYRQAPGKQRELVATVTSHGTTNYADSVKGRFTISRDPAKNTVYLQMNSLRPEDTAVYYCNAHFPGIYWGKGTLVTVSS | 0.00371 s⁻¹ and 0.004 s⁻¹ | 0.000777 s⁻¹ and 0.000731 s⁻¹ | 0.00361 | 0.000754 | 0.0036 | 6.91 | 50800 |  |  |

Results, then the binder that gave them:

| koff [1] | koff [2] | koff [3] [s⁻¹] | koff [4] [s⁻¹] | koff [5] [s⁻¹] | EC50 [6] [nM] | MFI top [6] [MFI] | koff [7] [s⁻¹] | nm (Fold wt) [7] | Binder |
| --- | --- | --- | --- | --- | --- | --- | --- | --- | --- |
| 0.0019 s⁻¹ | 0.000292 s⁻¹ | 0.00204 | 0.000333 | 0.000292 |  |  |  |  | P01500059: P01500001(G26E, D72E)-FLAG3-HIS6 (VHH, also called P0150059) VHH: EVQLVESGGGLVQPGGSLRLSCAASESGFSGMIMGWYRQAPGKQRELVATVTSHGTTNYADSVKGRFTISRENAKNTVYLQMNSLRPEDTAVYYCNAHFPGIYWGKGTLVTVSS |
|  |  |  |  |  |  |  | 0.0975 | 60 | P01500083: P0150001 with A24V, S27L, M32I, N76D (VHH) VHH: EVQLVESGGGLVQPGGSLRLSCAVSGLGFSGIIMGWYRQAPGKQRELVATVTSHGTTNYADSVKGRFTISRDNAKDTVYLQMNSLRPEDTAVYYCNAHFPGIYWGKGTLVTVSS |
| 0.00285 s⁻¹ | 0.000484 s⁻¹ | 0.00318 | 0.000484 | 0.00369 |  |  |  |  | P01500058: P01500001(G26E, G28P)-FLAG3-HIS6 (VHH, also called P0150058) VHH: EVQLVESGGGLVQPGGSLRLSCAASESPFSGMIMGWYRQAPGKQRELVATVTSHGTTNYADSVKGRFTISRDNAKNTVYLQMNSLRPEDTAVYYCNAHFPGIYWGKGTLVTVSS |
|  |  |  |  |  |  |  | 0.0618 | 38 | P01500082: P0150001 with A24V, S27L, M32I (VHH) VHH: EVQLVESGGGLVQPGGSLRLSCAVSGLGFSGIIMGWYRQAPGKQRELVATVTSHGTTNYADSVKGRFTISRDNAKNTVYLQMNSLRPEDTAVYYCNAHFPGIYWGKGTLVTVSS |
| 0.0018 s⁻¹ | 0.000246 s⁻¹ | 0.00146 | 0.000246 | 0.00281 | 4.35 | 53900 |  |  | P01500052: P01500001(V51R, D72E)-FLAG3-HIS6 (VHH, also called P0150052) VHH: EVQLVESGGGLVQPGGSLRLSCAASGSGFSGMIMGWYRQAPGKQRELVATRTSHGTTNYADSVKGRFTISRENAKNTVYLQMNSLRPEDTAVYYCNAHFPGIYWGKGTLVTVSS |
